Measured values as given in US20260365731 (published 2026).
Where “and” joins values, the source holds several entries; their conditions need not be identical. Equal entries are not always repeated.

B1: DotAb4 (designed binder)
chain: EVQLVESGGGLVQPGGSLRLSCAISGFSLAATDIDWVRQAPGKGLEWVARIFSPSDFTDYADSVKGRFTISADTSKNTVYLQMNSLRAEDTAVYYCGRPDTYAYNIFLDTPTYNALHYRGQGTLVTVSS
B2: Antibody 28 PD-1 arm (antibody, V domains shown)
VH: QGQLVQSGAEVKKPGASVKVSCKASGYTFTDYEMHWVRQAPIHGLEWIGVIESETGGTAYNQKFKGRVTITADKSTSTAYMELSSLRSEDTAVYYCAREGITTVATTYYWYFDVWGQGTTVTVSS
VL: DVVMTQSPLSLPVTLGQPASISCRSSQSIVHSNGNTYLEWYLQKPGQSPQLLIYKVSNRFSGVPDRFSGSGSGTDFTLKISRVEAEDVGVYYCFQGSHVPLTFGQGTKLEIK
B3: JS001 (TAB001, toripalimab) (antibody, V domains shown)
VH: QGQLVQSGAEVKKPGASVKVSCKASGYTFTDYEMHWVRQAPIHGLEWIGVIESETGGTAYNQKFKGRVTITADKSTSTAYMELSSLRSEDTAVYYCAREGITTVATTYYWYFDVWGQGTTVTVSS
VL: DVVMTQSPLSLPVTLGQPASISCRSSQSIVHSNGNTYLEWYLQKPGQSPQLLIYKVSNRFSGVPDRFSGSGSGTDFTLKISRVEAEDVGVYYCFQGSHVPLTFGQGTKLEIK
B4: Antibody 24 PD-1 arm (antibody, V domains shown)
VH: QGQLVQSGAEVKKPGASVKVSCKASGYTFTDYEMHWVRQAPIHGLEWIGVIESETGGTAYNQKFKGRVTITADKSTSTAYMELSSLRSEDTAVYYCAREGITTVATTYYWYFDVWGQGTTVTVSS
VL: DVVMTQSPLSLPVTLGQPASISCRSSQSIVHSNGNTYLEWYLQKPGQSPQLLIYKVSNRFSGVPDRFSGSGSGTDFTLKISRVEAEDVGVYYCFQGSHVPLTFGQGTKLEIK
B5: Antibody 27 PD-1 arm (antibody, V domains shown)
VH: QGQLVQSGAEVKKPGASVKVSCKASGYTFTDYEMHWVRQAPIHGLEWIGVIESETGGTAYNQKFKGRVTITADKSTSTAYMELSSLRSEDTAVYYCAREGITTVATTYYWYFDVWGQGTTVTVSS
VL: DVVMTQSPLSLPVTLGQPASISCRSSQSIVHSNGNTYLEWYLQKPGQSPQLLIYKVSNRFSGVPDRFSGSGSGTDFTLKISRVEAEDVGVYYCFQGSHVPLTFGQGTKLEIK
B6: Antibody 23 PD-1 arm (antibody, V domains shown)
VH: QGQLVQSGAEVKKPGASVKVSCKASGYTFTDYEMHWVRQAPIHGLEWIGVIESETGGTAYNQKFKGRVTITADKSTSTAYMELSSLRSEDTAVYYCAREGITTVATTYYWYFDVWGQGTTVTVSS
VL: DVVMTQSPLSLPVTLGQPASISCRSSQSIVHSNGNTYLEWYLQKPGQSPQLLIYKVSNRFSGVPDRFSGSGSGTDFTLKISRVEAEDVGVYYCFQGSHVPLTFGQGTKLEIK

How the values were obtained:
human VEGFA [1] = biological target: T1, human VEGFA (human, UniProt P15692); test: BLI
T1 chain: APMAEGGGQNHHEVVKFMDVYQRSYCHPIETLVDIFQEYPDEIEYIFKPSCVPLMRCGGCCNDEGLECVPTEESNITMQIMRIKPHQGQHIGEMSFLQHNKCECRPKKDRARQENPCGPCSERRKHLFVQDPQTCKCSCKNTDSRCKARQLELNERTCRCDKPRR

human PD-1 [2] = biological target: T2, human PD-1 (human, UniProt Q15116); test: BLI
human PD-1 [3] = biological target: T2, human PD-1; test: competition ELISA, PD-L1 blocking
human PD-1 [4] = biological target: T2, human PD-1; test: ELISA
human VEGFA [5] = biological target: T1, human VEGFA; test: SPR

| Kd (human VEGFA [1]) | Kd (human PD-1 [2]) | IC50 (human PD-1 [3]) | EC50 (human PD-1 [4]) | binding result (human VEGFA [5]) | Binder |
| --- | --- | --- | --- | --- | --- |
| < 0.0266 nM | – | – | – | – | B1 |
| – | 1.67 nM | 573 nM | 59.5 nM | – | B2 |
| – | 0.584 nM | 255 nM and 135 nM | – | no binding | B3 |
| – | 1.21 nM | 243 nM | 14.6 nM | – | B4 |
| – | 0.864 nM | 297 nM | 23.8 nM | – | B5 |
| – | 1.73 nM | 293 nM | 6.93 nM | – | B6 |
